System: mussel adhesive protein fp-151
Sequence (chain, as listed by the source): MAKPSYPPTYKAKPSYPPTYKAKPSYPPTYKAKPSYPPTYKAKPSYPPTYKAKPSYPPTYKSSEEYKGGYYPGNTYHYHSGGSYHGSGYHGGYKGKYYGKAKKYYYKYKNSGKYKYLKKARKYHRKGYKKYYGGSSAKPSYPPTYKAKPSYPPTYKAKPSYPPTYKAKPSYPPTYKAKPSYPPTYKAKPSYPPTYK

alkaline phosphatase
activity of alkaline phosphatase remaining on the nanofiber (conversion of pNPP, absorbance at 405 nm): alkaline phosphatase is coated only on PCL/fp-151 nanofiber to exhibit the activity
